Measured values as given in the Immune Epitope Database (IEDB).
pKd: −log10 of the molar value.

Experiments:
[1] = target: HLA-A*01:01; experiment: IEDB peptide-MHC binding, purified MHC/direct/fluorescence; filed as Kd, often an IC50 or EC50 that approximates it; ≥ and ≤ were set here for values at or beyond the usual limits of such assays
[2] = target: HLA-A*02:01; experiment: as above
[3] = target: HLA-A*03:01; experiment: as above
[4] = target: HLA-A*11:01; experiment: as above
[5] = target: HLA-A*24:02; experiment: as above
[6] = target: HLA-A*31:01; experiment: as above
[7] = target: HLA-A*69:01; experiment: as above
[8] = target: HLA-B*07:02; experiment: as above
[9] = target: HLA-B*08:02; experiment: as above; conditions: source organism: Giardia lamblia ATCC 50803
[10] = target: HLA-B*15:01; experiment: as above
[11] = target: HLA-B*15:09; experiment: as above
[12] = target: HLA-B*27:05; experiment: as above
[13] = target: HLA-B*40:01; experiment: as above
[14] = target: HLA-B*44:02; experiment: as above
[15] = target: HLA-B*58:01; experiment: as above
[16] = target: HLA-A*02:03; experiment: as above
[17] = target: HLA-A*02:11; experiment: as above
[18] = target: HLA-A*02:12; experiment: as above
[19] = target: HLA-A*02:16; experiment: as above
[20] = target: HLA-A*02:19; experiment: as above
[21] = target: HLA-A*24:03; experiment: as above
[22] = target: HLA-A*26:01; experiment: as above
[23] = target: HLA-B*18:01; experiment: as above
[24] = target: HLA-B*27:03; experiment: as above
[25] = target: HLA-B*39:01; experiment: as above; conditions: source organism: Vibrio parahaemolyticus AQ3810
[26] = target: HLA-B*46:01; experiment: as above
[27] = target: HLA-B*51:01; experiment: as above
[28] = target: HLA-B*57:01; experiment: as above
[29] = target: HLA-A*30:01; experiment: as above; conditions: source organism: Vibrio parahaemolyticus
[30] = target: HLA-B*08:01; experiment: as above
[31] = target: HLA-B*73:01; experiment: as above
[32] = target: HLA-A*23:01; experiment: as above; conditions: source organism: Salmonella enterica subsp. enterica serovar Berta
[33] = target: HLA-A*29:02; experiment: as above; conditions: source organism: Salmonella enterica subsp. enterica serovar Berta
[34] = target: HLA-A*68:02; experiment: as above; conditions: source organism: Salmonella enterica subsp. enterica serovar Berta
[35] = target: HLA-B*15:17; experiment: as above; conditions: source organism: Salmonella enterica subsp. enterica serovar Berta
[36] = target: HLA-B*48:01; experiment: as above; conditions: source organism: Brucella suis
[37] = target: HLA-C*03:03; experiment: as above; conditions: source organism: Bacillus anthracis str. A2012
[38] = target: HLA-C*06:02; experiment: as above; conditions: source organism: Bacillus anthracis str. A2012
[39] = target: HLA-C*07:02; experiment: as above; conditions: source organism: Bacillus anthracis str. A2012
[40] = target: HLA-C*12:03; experiment: as above; conditions: source organism: Bacillus anthracis str. A2012
[41] = target: HLA-C*14:02; experiment: as above; conditions: source organism: Bacillus anthracis str. A2012
[42] = target: HLA-C*15:02; experiment: as above; conditions: source organism: Bacillus anthracis str. A2012
[43] = target: HLA-B*15:02; experiment: IEDB peptide-MHC binding, purified MHC/competitive/fluorescence; filed as Kd, often an IC50 or EC50 that approximates it; ≥ and ≤ were set here for values at or beyond the usual limits of such assays; conditions: source organism: Bacillus anthracis str. A2012
[44] = target: HLA-B*46:01; experiment: as above; conditions: source organism: Bacillus anthracis str. A2012
[45] = source organism: Giardia lamblia ATCC 50803
[46] = source organism: Vibrio parahaemolyticus AQ3810
[47] = source organism: Vibrio parahaemolyticus
[48] = source organism: Salmonella enterica subsp. enterica serovar Berta
[49] = source organism: Influenza A virus (A/duck/Mongolia/47/2001(H7N1))
[50] = source organism: Influenza A virus(A/swine/Henan/3/2004(H9N2))

DEKPKVMEG
pKd [1, 45]: ≤ 4.70
pKd [2, 45]: ≤ 4.70
pKd [3, 45]: ≤ 4.70
pKd [4, 45]: ≤ 4.70
pKd [5, 45]: ≤ 4.70
pKd [6, 45]: ≤ 4.70
pKd [7, 45]: ≤ 4.70
pKd [8, 45]: ≤ 4.70
pKd [9]: ≤ 4.70
pKd [10, 45]: ≤ 4.70
pKd [11, 45]: ≤ 4.70
pKd [12, 45]: ≤ 4.70
pKd [13, 45]: ≤ 4.70
pKd [14, 45]: ≤ 4.70
pKd [15, 45]: ≤ 4.70

EPFLVQFWI
pKd [2, 46]: ≤ 4.70
pKd [16, 46]: ≤ 4.70
pKd [17, 46]: ≤ 4.70
pKd [18, 46]: ≤ 4.70
pKd [19, 46]: ≤ 4.70
pKd [20, 46]: ≤ 4.70
pKd [3, 46]: ≤ 4.70
pKd [21, 46]: ≤ 4.70
pKd [22, 46]: ≤ 4.70
pKd [10, 46]: ≤ 4.70
pKd [23, 46]: ≤ 4.70
pKd [24, 46]: ≤ 4.70
pKd [25]: ≤ 4.70
pKd [26, 46]: ≤ 4.70
pKd [27, 46]: 6.71
pKd [28, 46]: ≤ 4.70

GRNSRFPDK
pKd [1, 47]: ≤ 4.70
pKd [2, 47]: ≤ 4.70
pKd [3, 47]: ≤ 4.70
pKd [22, 47]: ≤ 4.70
pKd [29]: ≤ 5.30
pKd [6, 47]: ≤ 4.70
pKd [7, 47]: ≤ 4.70
pKd [8, 47]: ≤ 4.70
pKd [30, 47]: ≤ 4.70
pKd [10, 47]: ≤ 4.70
pKd [12, 47]: 5.98
pKd [13, 47]: ≤ 4.70
pKd [14, 47]: ≤ 4.70
pKd [15, 47]: ≤ 4.70
pKd [31, 46]: ≤ 4.70

HQDDGQPRL
pKd [2, 48]: ≤ 4.70
pKd [16, 48]: ≤ 4.70
pKd [17, 48]: ≤ 4.70
pKd [18, 48]: ≤ 4.70
pKd [19, 48]: ≤ 4.70
pKd [20, 48]: ≤ 4.70
pKd [3, 48]: ≤ 4.70
pKd [32]: ≤ 4.70
pKd [21, 48]: ≤ 4.70
pKd [22, 48]: ≤ 4.70
pKd [33]: ≤ 4.70
pKd [34]: ≤ 4.70
pKd [7, 48]: ≤ 4.70
pKd [10, 48]: ≤ 4.70
pKd [35]: ≤ 4.70
pKd [23, 48]: ≤ 4.70
pKd [24, 48]: ≤ 4.70
pKd [26, 48]: ≤ 4.70
pKd [27, 48]: ≤ 4.70
pKd [28, 48]: ≤ 4.70

NESGRLIDF
pKd [1, 49]: ≤ 4.70
pKd [2, 49]: ≤ 4.70
pKd [3, 49]: ≤ 4.70
pKd [4, 49]: ≤ 4.70
pKd [5, 49]: ≤ 4.70
pKd [22, 50]: ≤ 4.70
pKd [6, 49]: ≤ 4.70
pKd [7, 49]: ≤ 4.70
pKd [8, 49]: ≤ 4.70
pKd [30, 49]: ≤ 4.70
pKd [10, 49]: ≤ 4.70
pKd [11, 50]: ≤ 4.70
pKd [12, 49]: ≤ 4.70
pKd ([13]; source organism: Influenza A virus (A/Puerto Rico/8/34/Mount Sinai(H1N1))): ≤ 5.30
pKd [26, 49]: ≤ 4.70
pKd [15, 49]: ≤ 4.70

RRTKLPLTK
pKd ([12]; source organism: Brucella suis): 7.10
pKd [36]: ≤ 4.70
pKd ([31]; source organism: Brucella suis 1330): ≤ 4.70

SMFDSWGPF
pKd [37]: ≤ 4.70
pKd [38]: ≤ 4.70
pKd [39]: 6.65
pKd [40]: 6.99
pKd [41]: 6.73
pKd [42]: ≤ 4.70
pKd [43]: 8.30
pKd [44]: 8.37
